Measured values published in PMC12287357 (2025).

Biological target: SteE_pS141pY143
Experiment: BLI

B1: recombinant His6-STAT3^127-715 (domain or fragment)
chain: GQANHPTAAVVTEKQQMLEQHLQDVRKRVQDLEQKMKVVENLQDDFDFNYKTLKSQGDMQDLNGNNQSVTRQKMQQLEQMLTALDQMRRSIVSELAGLLSAMEYVQKTLTDEELADWKRRQQIACIGGPPNICLDRLENWITSLAESQLQTRQQIKKLEELQQKVSYKGDPIVQHRPMLEERIVELFRNLMKSAFVVERQPCMPMHPDRPLVIKTGVQFTTKVRLLVKFPELNYQLKIKVCIDKDSGDVAALRGSRKFNILGTNTKVMNMEESNNGSLSAEFKHLTLREQRCGNGGRANCDASLIVTEELHLITFETEVYHQGLKIDLETHSLPVVVISNICQMPNAWASILWYNMLTNNPKNVNFFTKPPIGTWDQVAEVLSWQFSSTTKRGLSIEQLTTLAEKLLGPGVNYSGCQITWAKFCKENMAGKGFSFWVWLDNIIDLVKKYILALWNEGYIMGFISKERERAILSTKPPGTFLLRFSESSKEGGVTFTWVEKDISGKTQIQSVEPYTKQQLNNMSFAEIIMGYKIMDATNILVSPLVYLYPDIPKEEAFGKYCRPESQEHPEADPGSAAPYLKTKFICVTP
B1 was tested, and the Kd was 1400 nM.
